Data as given in patent US20220340682A1 (Sanofi, published 2022).
Positions count from the first letter of the chain named. Each block holds one binder with its values, some of them ahead of it.

Columns and labels:
[1] = biological target: T1, hCEACAM5, human CEACAM5 ECD (35-685) (human, UniProt P06731 35-685); assay: SPR screening (Biacore T200) of example 6.4
T1 construct: produced in HEK293; also called human CEACAM5 protein; human CEACAM5 extracellular domain
T1 sequence: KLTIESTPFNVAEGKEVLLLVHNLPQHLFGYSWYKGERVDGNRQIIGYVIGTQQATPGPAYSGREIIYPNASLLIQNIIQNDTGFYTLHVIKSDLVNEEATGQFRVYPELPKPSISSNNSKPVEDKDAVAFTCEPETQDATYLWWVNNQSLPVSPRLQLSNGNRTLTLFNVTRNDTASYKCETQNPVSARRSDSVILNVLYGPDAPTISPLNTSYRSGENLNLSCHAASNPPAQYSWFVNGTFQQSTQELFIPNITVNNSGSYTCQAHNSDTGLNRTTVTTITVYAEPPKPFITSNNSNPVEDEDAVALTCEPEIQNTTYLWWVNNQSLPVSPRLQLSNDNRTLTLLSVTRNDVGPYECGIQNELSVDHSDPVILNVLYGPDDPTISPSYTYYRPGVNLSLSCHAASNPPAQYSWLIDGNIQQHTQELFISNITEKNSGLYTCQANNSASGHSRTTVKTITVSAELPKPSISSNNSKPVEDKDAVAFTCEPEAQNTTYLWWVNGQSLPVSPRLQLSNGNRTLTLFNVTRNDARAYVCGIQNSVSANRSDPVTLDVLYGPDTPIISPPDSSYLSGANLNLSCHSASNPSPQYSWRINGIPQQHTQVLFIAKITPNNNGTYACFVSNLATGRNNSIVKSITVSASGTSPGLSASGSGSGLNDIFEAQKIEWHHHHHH
Experimental: (§1) To evaluate impact of these modifications, IgGs binding was determined by measuring SPR signals with a Biacore T200 unit (GE Healthcare). Anti-human Fc antibodies were coupled to a Series S CM5 chip via amine coupling kit to reach a level of 10,000 response units (RU). Approximately 300 to 600 RU of each variant were captured by injecting supernatants at 1 μg/mL with a contact time of 60 seconds and a flow rate of 10 μL/min. All experiments were performed at 25° C. with HBS-EP+(10 mM Hepes, 150 mM NaCl, 3 mM EDTA, 0.05% surfactant P20) as the running buffer. In a screening mode, the human CEACAM5 cynomolgus CEACAM5/human A3B3 domain was injected at 50 nM over the captured IgG variants at a flow rate of 30 μLimin for 1 minute. […]
(§2) For each experiment, response data were processed using a reference surface, thereby allowing correction for bulk refractive index changes and any non-specific binding. […] First, the binding activity is estimated by the proportion of the theoretical maximum signal measured (percentage of Rmax, see FIG. 16). Second, the percentage of remaining signal is calculated using dissociation report points (the first one 10 seconds after the end of the injection and the second one 50 seconds after the end of injection) and reflects the stability of binding (see FIG. 17).

[2] = biological target: T2, cCEACAM5, M. fascicularis CEACAM5 ECD (35-688) (Macaca fascicularis); assay: SPR screening (Biacore T200) of example 6.4
T2 construct: ECD followed by a 24 amino acid extension containing a His-Tag; also called cynomolgus CEACAM5; monkey CEACAM5
T2 chain: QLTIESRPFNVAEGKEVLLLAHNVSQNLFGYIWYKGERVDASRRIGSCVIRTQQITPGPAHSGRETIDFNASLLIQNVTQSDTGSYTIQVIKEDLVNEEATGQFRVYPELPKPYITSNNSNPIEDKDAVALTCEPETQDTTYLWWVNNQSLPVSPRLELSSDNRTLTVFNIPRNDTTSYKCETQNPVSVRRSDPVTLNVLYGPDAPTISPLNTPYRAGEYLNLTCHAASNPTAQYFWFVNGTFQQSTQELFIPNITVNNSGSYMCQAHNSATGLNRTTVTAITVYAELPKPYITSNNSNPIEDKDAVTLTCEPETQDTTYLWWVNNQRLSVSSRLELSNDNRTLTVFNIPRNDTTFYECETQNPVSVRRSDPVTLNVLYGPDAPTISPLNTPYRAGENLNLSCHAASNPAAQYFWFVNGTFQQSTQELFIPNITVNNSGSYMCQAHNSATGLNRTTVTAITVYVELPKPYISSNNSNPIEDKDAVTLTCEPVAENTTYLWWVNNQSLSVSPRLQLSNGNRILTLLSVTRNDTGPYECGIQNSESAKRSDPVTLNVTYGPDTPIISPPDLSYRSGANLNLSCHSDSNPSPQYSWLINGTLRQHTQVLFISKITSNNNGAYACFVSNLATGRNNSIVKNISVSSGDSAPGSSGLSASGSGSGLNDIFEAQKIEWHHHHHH
Experimental: as §1, §2

[3] = biological target: T1, hCEACAM5, human CEACAM5 ECD (35-685); assay: SPR (Biacore T200), IgG captured by anti-human Fc, antigen injected at 50 nM; % remaining signal after 50 seconds
Experimental: (§3) To evaluate impact of these modifications, IgGs binding was determined by measuring SPR signals with a Biacore T200 unit (GE Healthcare). Anti-human Fc antibodies were coupled to a Series S CM5 chip via amine coupling kit to reach a level of 10,000 response units (RU). Approximately 300 to 600 RU of each variant were captured by injecting supernatants at 1 μg/mL with a contact time of 60 seconds and a flow rate of 10 μL/min. All experiments were performed at 25° C. with HBS-EP+(10 mM Hepes, 150 mM NaCl, 3 mM EDTA, 0.05% surfactant P20) as the running buffer. In a screening mode, the human CEACAM5 cynomolgus CEACAM5/human A3B3 domain was injected at 50 nM over the captured IgG variants at a flow rate of 30 μLimin for 1 minute. A dissociation phase of 60 seconds was held before the surface was regenerated with 1 pulse injection of 3 M MgCl₂ at a flow rate of 10 μLiminute and a contact time of 30 seconds.
(§4) For each experiment, response data were processed using a reference surface, thereby allowing correction for bulk refractive index changes and any non-specific binding. Data were double referenced using response from blank injections. According to the screening method described in an application note from GE Healthcare (Application note 28-9777-72 AA), two parameters were considered to rank the variants with respect to binding characteristics. First, the binding activity is estimated by the proportion of the theoretical maximum signal measured (percentage of Rmax, see FIG. 16). Second, the percentage of remaining signal is calculated using dissociation report points (the first one 10 seconds after the end of the injection and the second one 50 seconds after the end of injection) and reflects the stability of binding (see FIG. 17).

[4] = biological target: T2, cCEACAM5, M. fascicularis CEACAM5 ECD …; assay: as above
Experimental: as §3, §4

[5] = biological target: T1, hCEACAM5, human CEACAM5 ECD (35-685); assay: SPR (Biacore T200), IgG captured by anti-human Fc, antigen injected at 50 nM; % Rmax reached
Experimental: as §3, §4

[6] = biological target: T2, cCEACAM5, M. fascicularis CEACAM5 ECD …; assay: as above
Experimental: as §3, §4

binding result [5]: binds | binding result [6]: binds
B6: LC_T53I-HC_S53A (antibody, V domains shown)
VH: EVQLVESGGGLVQPGGSLRLSCAASGFVFSSYDMSWVRQAPGKGLEWVSYISAGGGITYYADSVKGRFTISRDNSKNTLYLQMNSLRAEDTAVYYCAAHYFGSSGPFAYWGQGTLVTVSS
VL: DIQMTQSPSSLSASVGDRVTITCRASENIFSYLAWYQQKPGKAPKLLIYNTRILQSGVPSRFSGSGSGTDFTLTISSLQPEDFATYYCQHHYGTPFTFGQGTKLEIK
notes: combination variant of MAb2_VLg5VHg2

binding result [5]: binds | binding result [6]: binds
B7: LC_T51A-T94A (antibody, V domains shown)
VH: B6 VH with A53S
VL: B6 VL with T51A, I53T, T94A
notes: as for B6

binding result [3]: binds | binding result [4]: binds
B8: LC_S31A (antibody, V domains shown)
VH: B6 VH with A53S
VL: B6 VL with S31A, I53T
notes: variant of MAb2_VLg5VHg2

The remaining lines, values behind:

B1: MAb2_VLg5VHg2 (antibody, human IgG1, V domains shown)
VH: B6 VH with A53S
VL: B6 VL with I53T
notes: Fused to human IgG1 and human Ckappa constant domains; tested as IgG in HEK293 supernatants diluted to 1 ug/ml; Parent of the alanine-scanning variants; also called MAb2_VLg5Hg2; humanized MAb2 grafted on IGHV3-23 / IGKV1D-39
binding result [1]: binds | binding result [2]: binds

B2: HC_S53A (antibody, V domains shown)
VH: B6 VH
VL: B6 VL with I53T
notes: variant of MAb2_VLg5VHg2
binding result [3]: binds | binding result [4]: binds

B3: LC_S31A-HC_G54Y (antibody, V domains shown)
VH: B6 VH with A53S, G54Y
VL: B6 VL with S31A, I53T
notes: as for B6
binding result [5]: binds | binding result [6]: binds

B4: LC_T51A (antibody, V domains shown)
VH: B6 VH with A53S
VL: B6 VL with T51A, I53T
notes: variant of MAb2_VLg5VHg2
binding result [3]: binds | binding result [4]: binds

B5: LC_T94A (antibody, V domains shown)
VH: B6 VH with A53S
VL: B6 VL with I53T, T94A
notes: variant of MAb2_VLg5VHg2
binding result [5]: binds
